Results on one substance are retold here after publication PMC6021247.

In assay [1] the target is rabbit TRIB3 pseudokinase fused to GFP (rTRIB3-GFP) (rabbit). The assay can be described thus: FRET or BRET; flow cytometry-based FRET (FRET-FACS); HEK-293T cells 48 hours after co-transfection of a Cherry-fusion and a GFP-fusion plasmid; percentage of FRET+ cells gated on Cherry+ and GFP+ cells.
The target in assay [2] is rabbit APOBEC3A fused to Cherry (rA3A-Cherry) (rabbit). The assay is described as above.

For “rabbit APOBEC3A fused to Cherry (rA3A-Cherry) (enzyme)”, the percentage of fluorescent cells in the FRET channel in assay [1] came out at 11%; in assay [2], 19%.
